The record followed here is patent US20040014658A1 (PROCHON BIOTECH, published 2004).

The assay has as its target L37M-W144G-FGF9 (human, UniProt P31371 38-208). The assay is described as follows: ex vivo mouse femur growth with FGFR3 neutralizing Fab MSPRO-59 (inferred).

Protocol: Femoral bone cultures were performed by excising the hind limbs of wild type mice. The limbs were carefully cleaned from the surrounding tissue (skin and muscles) and the femora exposed. The femora were removed and further cleared from tissue remains and ligaments. The femora were measured for their initial length, using a binocular with an eyepiece micrometer ruler. […] In addition, the medium contains BSA (0.2%), β-glycerophosphate (1 mM) and freshly prepared ascorbic acid (50 μg/ml). The bones were cultured for 15 days. Measurements of bone length and medium replacement were performed every three days.

B1: FGFR3 of wild type mouse femora (receptor)
chain: EPPGPEQRVVRRAAEVPGPEPSQQEQVAFGSGDTVELSCHPPGGAPTGPTVWAKDGTGLVASHRILVGPQRLQVLNASHEDAGVYSCQHRLTRRVLCHFSVRVTDAPSSGDDEDGEDVAEDTGAPYWTRPERMDKKLLAVPAANTVRFRCPAAGNPTPSISWLKNGKEFRGEHRIGGIKLRHQQWSLVMESVVPSDRGNYTCVVENKFGSIRQTYTLDVLERSPHRPILQAGLPANQTAILGSDVEFHCKVYSDAQPHIQWLKHVEVNGSKVGPDGTPYVTVLKTAGANTTDKELEVLSLHNVTFEDAGEYTCLAGNSIGFSHHSAWLVVLPAEEELMETDEAGSVYAGVLSYGVVFFLFILVVAAVILCRLRSPPKKGLGSPTVHKVSRFPLKRQVSLESNSSMNSNTPLVRIARLSSGEGPVLANVSELELPADPKWELSRTRLTLGKPLGEGCFGQVVMAEAIGIDKDRTAKPVTVAVKMLKDDATDKDLSDLVSEMEMMKMIGKHKNIINLLGACTQGGPLYVLVEYAAKGNLREFLRARRPPGMDYSFDACRLPEEQLTCKDLVSCAYQVARGMEYLASQKCIHRDLAARNVLVTEDNVMKIADFGLARDVHNLDYYKKTTNGRLPVKWMAPEALFDRVYTHQSDVWSFGVLLWEIFTPGGPSPYPGIPVEELFKLLKEGHRMDKPASCTHDLYMIMRECWHAVPSQRPTFKQLVEDLDRILTVTSTDEYLDLSVPFEQYSPGGQDTPSSSSSGDDSVFTHDLLPPGPPSNGGPRT
notes: whole, on cells; Endogenous receptor in bone tissue culture
As to B1, the binding result was “binds”.
